Measured values taken from article PMC9578707, “Identification of orphan ligand-receptor relationships using a cell-based CRISPRa enrichment screening platform” (eLife, 2022).
Values belong to the binder of their own block, whether it stands above or below them.

Legend:
[1] = target: T1, growth arrest specific 1 protein (human, UniProt P54826 40-317, biotin (biotinylated in vitro with BirA) where used on beads or as tetramer); test: SPR; Biacore T100; biotinylated receptor ECD or hit protein captured on a streptavidin chip (~100-200 RU), non-biotinylated secreted ligand as analyte in twofold dilutions; HBS-P+ buffer; 1:1 Langmuir model or equilibrium fit; details: both partners purified
T1 construct: growth arrest specific 1, human; also called GAS1; source: Expi293F, purified (Ni-NTA, SEC); not shown: AviTag, C-terminal, kept
T1 sequence (looked up): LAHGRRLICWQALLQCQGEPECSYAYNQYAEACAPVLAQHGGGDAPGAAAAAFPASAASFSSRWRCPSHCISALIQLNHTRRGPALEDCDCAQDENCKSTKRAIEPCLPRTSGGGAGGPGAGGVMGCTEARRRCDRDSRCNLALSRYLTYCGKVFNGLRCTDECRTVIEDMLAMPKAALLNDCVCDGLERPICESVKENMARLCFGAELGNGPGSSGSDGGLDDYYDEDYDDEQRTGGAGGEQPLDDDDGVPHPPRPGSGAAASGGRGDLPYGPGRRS

PTPRF ECD = target: T2, PTPRF ECD (human, UniProt P10586 30-1263, biotin where captured on the streptavidin chip); test: SPR; Biacore T100; biotinylated secreted ligand (OMG, PTN or MDK) captured on a streptavidin chip, receptor ECD as analyte; HBS-P+ buffer; details: both partners purified
T2 construct: PTPRF, human, extracellular domain; construct of the ECD is not described; also called PRPRF; source: Expi293F, purified (Ni-NTA, SEC)

PTPRS ECD = target: T3, PTPRS ECD (human, UniProt Q13332 30-1282, biotin where captured on the streptavidin chip); test: as above; details: both partners purified
T3 construct: PTPRS, human, extracellular domain; construct of the ECD is not described; source: Expi293F, purified (Ni-NTA, SEC)
T3 sequence (looked up): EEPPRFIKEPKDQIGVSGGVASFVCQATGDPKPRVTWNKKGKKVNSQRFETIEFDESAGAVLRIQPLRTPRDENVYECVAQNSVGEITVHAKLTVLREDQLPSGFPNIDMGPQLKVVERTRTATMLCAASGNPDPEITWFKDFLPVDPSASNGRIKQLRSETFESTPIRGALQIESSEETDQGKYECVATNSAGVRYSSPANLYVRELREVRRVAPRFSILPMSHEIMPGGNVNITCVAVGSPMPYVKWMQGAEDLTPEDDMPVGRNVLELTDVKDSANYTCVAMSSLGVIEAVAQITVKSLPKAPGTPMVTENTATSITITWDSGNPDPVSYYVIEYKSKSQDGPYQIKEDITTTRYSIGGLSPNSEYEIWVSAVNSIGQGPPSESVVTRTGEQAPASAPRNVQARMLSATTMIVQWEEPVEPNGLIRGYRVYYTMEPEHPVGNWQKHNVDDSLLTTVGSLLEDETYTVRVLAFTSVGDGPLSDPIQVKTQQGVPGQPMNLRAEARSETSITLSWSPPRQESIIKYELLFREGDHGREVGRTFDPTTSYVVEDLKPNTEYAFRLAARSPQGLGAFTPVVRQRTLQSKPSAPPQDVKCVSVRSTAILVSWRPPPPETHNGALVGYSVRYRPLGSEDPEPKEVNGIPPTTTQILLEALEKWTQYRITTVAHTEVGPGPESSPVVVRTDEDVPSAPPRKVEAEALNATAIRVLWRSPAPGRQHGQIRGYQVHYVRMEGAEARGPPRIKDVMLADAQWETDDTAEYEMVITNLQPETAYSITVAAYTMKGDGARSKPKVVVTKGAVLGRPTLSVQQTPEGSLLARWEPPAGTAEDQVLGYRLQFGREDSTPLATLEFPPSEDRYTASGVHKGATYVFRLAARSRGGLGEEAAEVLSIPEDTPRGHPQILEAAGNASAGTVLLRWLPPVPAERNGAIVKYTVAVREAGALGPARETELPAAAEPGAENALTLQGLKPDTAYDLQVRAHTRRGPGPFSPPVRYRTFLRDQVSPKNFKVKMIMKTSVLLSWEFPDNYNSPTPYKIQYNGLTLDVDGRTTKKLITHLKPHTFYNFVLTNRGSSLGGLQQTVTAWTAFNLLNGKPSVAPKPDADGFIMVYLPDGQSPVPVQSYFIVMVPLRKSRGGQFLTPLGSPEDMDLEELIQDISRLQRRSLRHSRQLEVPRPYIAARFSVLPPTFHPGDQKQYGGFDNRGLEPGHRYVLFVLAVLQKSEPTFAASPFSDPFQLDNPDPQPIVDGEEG

PTPRD ECD = target: T4, PTPRD ECD (human, UniProt P23468 21-1265, biotin where captured on the streptavidin chip); test: as above; details: both partners purified
T4 construct: PTPRD, human, extracellular domain; construct of the ECD is not described; source: Expi293F, purified (Ni-NTA, SEC)
T4 sequence (P23468 21-1265): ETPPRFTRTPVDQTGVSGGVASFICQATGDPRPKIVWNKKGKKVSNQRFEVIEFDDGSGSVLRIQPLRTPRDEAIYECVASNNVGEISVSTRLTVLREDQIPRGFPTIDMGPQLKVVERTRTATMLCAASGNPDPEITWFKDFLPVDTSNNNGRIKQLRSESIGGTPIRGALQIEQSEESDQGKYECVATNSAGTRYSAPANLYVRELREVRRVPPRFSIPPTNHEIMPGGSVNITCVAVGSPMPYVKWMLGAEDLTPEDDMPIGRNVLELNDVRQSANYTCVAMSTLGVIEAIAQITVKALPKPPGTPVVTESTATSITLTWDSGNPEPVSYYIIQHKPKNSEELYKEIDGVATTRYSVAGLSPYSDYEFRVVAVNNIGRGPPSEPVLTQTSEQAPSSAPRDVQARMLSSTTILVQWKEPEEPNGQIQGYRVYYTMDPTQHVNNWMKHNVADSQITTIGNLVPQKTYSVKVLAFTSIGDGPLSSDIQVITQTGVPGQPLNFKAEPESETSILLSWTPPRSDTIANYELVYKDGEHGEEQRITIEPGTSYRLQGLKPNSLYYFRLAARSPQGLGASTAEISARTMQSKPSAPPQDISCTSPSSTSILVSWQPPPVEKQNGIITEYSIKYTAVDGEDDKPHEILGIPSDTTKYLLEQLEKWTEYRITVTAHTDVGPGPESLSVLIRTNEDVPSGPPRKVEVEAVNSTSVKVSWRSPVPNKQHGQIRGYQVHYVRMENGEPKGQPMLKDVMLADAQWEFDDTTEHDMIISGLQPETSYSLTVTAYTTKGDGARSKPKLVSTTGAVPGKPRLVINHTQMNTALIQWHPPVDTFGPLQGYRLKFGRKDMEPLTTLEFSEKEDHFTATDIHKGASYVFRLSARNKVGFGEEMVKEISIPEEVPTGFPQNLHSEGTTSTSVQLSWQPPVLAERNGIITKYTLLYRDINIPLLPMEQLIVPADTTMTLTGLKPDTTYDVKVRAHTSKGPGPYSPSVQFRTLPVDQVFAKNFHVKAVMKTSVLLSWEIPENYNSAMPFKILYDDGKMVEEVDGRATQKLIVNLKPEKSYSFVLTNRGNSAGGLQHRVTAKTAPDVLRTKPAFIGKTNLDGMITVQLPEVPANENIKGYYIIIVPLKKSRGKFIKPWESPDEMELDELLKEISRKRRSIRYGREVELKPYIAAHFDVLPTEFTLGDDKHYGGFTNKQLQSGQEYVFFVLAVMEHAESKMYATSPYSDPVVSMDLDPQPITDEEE

human PTPRU-ECD [2] = target: T5, human PTPRU-ECD (human, UniProt Q92729 19-749, biotin where captured on the streptavidin chip); test: SPR
T5 chain: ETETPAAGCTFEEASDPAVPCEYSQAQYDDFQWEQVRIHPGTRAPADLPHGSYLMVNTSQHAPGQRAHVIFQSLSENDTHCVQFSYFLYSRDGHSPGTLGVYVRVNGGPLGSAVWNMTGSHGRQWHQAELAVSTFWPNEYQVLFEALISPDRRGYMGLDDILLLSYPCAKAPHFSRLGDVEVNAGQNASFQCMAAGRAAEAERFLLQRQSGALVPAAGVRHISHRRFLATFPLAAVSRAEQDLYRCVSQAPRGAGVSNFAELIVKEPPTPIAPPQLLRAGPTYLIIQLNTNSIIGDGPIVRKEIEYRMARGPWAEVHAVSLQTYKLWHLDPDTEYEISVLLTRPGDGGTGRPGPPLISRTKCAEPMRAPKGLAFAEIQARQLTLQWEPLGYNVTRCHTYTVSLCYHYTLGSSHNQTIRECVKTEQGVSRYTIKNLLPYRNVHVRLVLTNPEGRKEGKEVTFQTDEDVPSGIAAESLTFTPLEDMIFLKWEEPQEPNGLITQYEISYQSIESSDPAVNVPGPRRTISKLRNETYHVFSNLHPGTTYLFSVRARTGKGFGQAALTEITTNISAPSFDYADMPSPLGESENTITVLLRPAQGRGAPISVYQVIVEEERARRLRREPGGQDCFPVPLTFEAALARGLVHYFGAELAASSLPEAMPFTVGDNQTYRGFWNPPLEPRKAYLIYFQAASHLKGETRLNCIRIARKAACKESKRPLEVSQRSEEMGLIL

human PTPRU-ECD [3] = target: T6, human PTPRU-ECD (human, UniProt Q92729 19-749, biotin where captured on the streptavidin chip); test: SPR; Biacore T100; biotinylated receptor ECD or hit protein captured on a streptavidin chip (~100-200 RU), non-biotinylated secreted ligand as analyte in twofold dilutions; HBS-P+ buffer; 1:1 Langmuir model or equilibrium fit; details: both partners purified
T6 construct: PTPRU, human, extracellular domain; construct of the ECD is not described; source: Expi293F, purified (Ni-NTA, SEC)
T6 sequence (looked up): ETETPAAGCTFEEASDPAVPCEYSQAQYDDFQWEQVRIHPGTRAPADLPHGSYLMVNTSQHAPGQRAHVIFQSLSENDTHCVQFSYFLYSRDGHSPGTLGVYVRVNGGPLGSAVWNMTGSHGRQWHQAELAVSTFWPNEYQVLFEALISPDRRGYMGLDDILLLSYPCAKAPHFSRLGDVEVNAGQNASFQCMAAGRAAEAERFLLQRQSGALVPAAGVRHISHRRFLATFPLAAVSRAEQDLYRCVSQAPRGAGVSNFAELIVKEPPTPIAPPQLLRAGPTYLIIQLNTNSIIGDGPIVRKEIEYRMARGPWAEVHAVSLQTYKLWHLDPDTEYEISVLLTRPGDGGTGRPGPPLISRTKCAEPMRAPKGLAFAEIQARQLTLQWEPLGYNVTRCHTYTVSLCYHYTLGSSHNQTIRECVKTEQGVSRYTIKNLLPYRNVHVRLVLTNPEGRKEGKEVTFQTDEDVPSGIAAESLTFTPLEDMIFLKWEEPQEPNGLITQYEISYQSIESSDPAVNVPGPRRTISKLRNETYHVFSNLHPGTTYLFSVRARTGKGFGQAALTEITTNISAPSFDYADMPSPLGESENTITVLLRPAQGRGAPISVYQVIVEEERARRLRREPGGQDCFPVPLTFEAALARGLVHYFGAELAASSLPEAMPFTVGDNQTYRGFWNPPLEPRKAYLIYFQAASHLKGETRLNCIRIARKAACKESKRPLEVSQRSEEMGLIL

[4] = target: T7, PTPRU-ECD (receptor protein tyrosine phosphatase U, extracellular domain) (human, UniProt Q92729 19-749, biotin (BirA biotinylation; captured on streptavidin chip)); test: SPR; Biacore T100; biotinylated ligand captured on a streptavidin (SA) Series S chip (~100-200 RU); non-biotinylated analyte in twofold dilutions in HBS-P+; 60 s injection at 30 ul/min, 240 s dissociation; regeneration 2 x 10 sec 2M MgCl2; kinetic fit with a 1:1 binding (Langmuir) model; details: both partners purified
T7 construct: receptor-type protein tyrosine phosphatase U (PTPRU, R2B subfamily), human, extracellular domain; source: Expi293F, purified (Ni-NTA, SEC), biotinylated in vitro with BirA
T7 sequence (looked up): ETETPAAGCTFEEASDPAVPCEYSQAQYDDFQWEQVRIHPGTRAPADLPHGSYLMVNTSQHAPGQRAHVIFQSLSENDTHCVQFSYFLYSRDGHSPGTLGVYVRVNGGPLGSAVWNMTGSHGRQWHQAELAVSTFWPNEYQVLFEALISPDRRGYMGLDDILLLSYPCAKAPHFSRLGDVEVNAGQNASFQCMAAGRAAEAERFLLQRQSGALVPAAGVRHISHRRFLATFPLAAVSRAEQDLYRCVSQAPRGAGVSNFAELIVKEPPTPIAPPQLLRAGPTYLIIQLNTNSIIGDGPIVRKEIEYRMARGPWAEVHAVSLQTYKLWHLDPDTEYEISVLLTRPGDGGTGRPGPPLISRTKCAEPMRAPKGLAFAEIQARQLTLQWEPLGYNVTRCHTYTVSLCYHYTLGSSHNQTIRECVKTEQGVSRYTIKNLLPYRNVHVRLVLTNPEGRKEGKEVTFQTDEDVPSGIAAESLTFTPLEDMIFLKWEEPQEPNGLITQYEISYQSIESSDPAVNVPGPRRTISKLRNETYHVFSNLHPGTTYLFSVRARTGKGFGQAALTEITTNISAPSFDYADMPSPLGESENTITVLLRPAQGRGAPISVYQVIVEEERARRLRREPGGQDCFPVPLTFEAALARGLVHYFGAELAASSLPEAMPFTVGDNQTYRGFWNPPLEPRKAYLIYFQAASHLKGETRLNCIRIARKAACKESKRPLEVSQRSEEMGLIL

Kd [1]: ~1000 nM
B1: PTPRA-ECD (domain or fragment, human, UniProt P18433 20-151, looked up)
chain: NNATTVAPSVGITRLINSSTAEPVKEEAKTSNPTSSLTSLSVAPTFSPNITLGPTYLTTVNSSDSDNGTTRTASTNSIGITISPNGTWLPDNQFTDARTEPWEGNSSTAATTPETFPPSGNSDSKDRRDETP
modifications: biotin (captured on the streptavidin chip)
notes: PTPRA, human, extracellular domain; construct of the ECD is not described; source: Expi293F, purified (Ni-NTA, SEC)

binding result (PTPRF ECD): binds
binding result (PTPRS ECD): binds
binding result (PTPRD ECD): binds
koff (human PTPRU-ECD [2]): 0.00042 s⁻¹
Kd (human PTPRU-ECD [3]): ~70 nM
B2: oligodendrocyte-myelin glycoprotein (ligand, human, UniProt P23515 25-417, looked up)
chain: ICPLQCICTERHRHVDCSGRNLSTLPSGLQENIIHLNLSYNHFTDLHNQLTQYTNLRTLDISNNRLESLPAHLPRSLWNMSAANNNIKLLDKSDTAYQWNLKYLDVSKNMLEKVVLIKNTLRSLEVLNLSSNKLWTVPTNMPSKLHIVDLSNNSLTQILPGTLINLTNLTHLYLHNNKFTFIPDQSFDQLFQLQEITLYNNRWSCDHKQNITYLLKWMMETKAHVIGTPCSTQISSLKEHNMYPTPSGFTSSLFTVSGMQTVDTINSLSVVTQPKVTKIPKQYRTKETTFGATLSKDTTFTSTDKAFVPYPEDTSTETINSHEAAAATLTIHLQDGMVTNTSLTSSTKSSPTPMTLSITSGMPNNFSEMPQQSTTLNLWREETTTNVKTPLPS
modifications: biotin (biotinylated in vitro with BirA) where used on beads or captured on the chip
notes: oligodendrocyte-myelin glycoprotein, human; also called OMG; source: Expi293F, purified (Ni-NTA, SEC); not shown: AviTag, C-terminal, kept

Kd [4]: 70.6 nM
koff [4]: 0.000472 s⁻¹
kon [4]: 6690 M⁻¹ s⁻¹
B3: oligodendrocyte-myelin glycoprotein (OMG) (ligand, human, UniProt P23515 25-417, looked up)
chain: ICPLQCICTERHRHVDCSGRNLSTLPSGLQENIIHLNLSYNHFTDLHNQLTQYTNLRTLDISNNRLESLPAHLPRSLWNMSAANNNIKLLDKSDTAYQWNLKYLDVSKNMLEKVVLIKNTLRSLEVLNLSSNKLWTVPTNMPSKLHIVDLSNNSLTQILPGTLINLTNLTHLYLHNNKFTFIPDQSFDQLFQLQEITLYNNRWSCDHKQNITYLLKWMMETKAHVIGTPCSTQISSLKEHNMYPTPSGFTSSLFTVSGMQTVDTINSLSVVTQPKVTKIPKQYRTKETTFGATLSKDTTFTSTDKAFVPYPEDTSTETINSHEAAAATLTIHLQDGMVTNTSLTSSTKSSPTPMTLSITSGMPNNFSEMPQQSTTLNLWREETTTNVKTPLPS
notes: oligodendrocyte-myelin glycoprotein (OMG), human; source: Expi293F, purified (Ni-NTA, SEC), not biotinylated (SPR analyte)
